Measured values from the nanobody polyreactivity screen of Harvey et al. (2022).

Test: yeast display, Sf9 membrane polyspecificity reagent, FACS + sequencing; frameworks hold sequencing errors
Outline: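 A synthetic nanobody library was expressed on Saccharomyces cerevisiae BJ5465 by galactose induction for 36–48 hours. The library was stained for 1 hour at 4 °C with 10% biotinylated, detergent-solubilized Sf9 membrane reagent and enriched with streptavidin microbeads before FACS. Low and high (top ~1%) gates were set on anti-HA fluorescence for expression and streptavidin fluorescence for reagent binding, and each polyreactivity label reflects the gate of origin.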

Sequence | polyreactivity (PSR sort gate)
QVQLVESGGGLVQAGGSLRLSCAASGRTFGKNAMGWYRQAPGKEREFVAAITSRGGSTYYADSVKGRFTISRDNAKNTVYLQMNSLKPEDTAVYYCNREYNRPSQRTEHYYWGQGTQVTVSS | low polyreactivity
QVQLVESGGGLVQAGGSLRLSCAASGSIFYRNAMGWYRQAPGKERELVAAISGRGGSTNYADSVKGRFTISRDNAKNTVYLQMNSLKPEDTAVYYCNRYGVSNILVRGGYWGQGTQVTVSS | high polyreactivity
QVQLEESGRGLVQAGGSLRLSCAASGRTFLQYAMGWYRQAPRKERELVAANTTSGGDTYYADSVKGRFTISRDNAKNTVYLQMNSLKPEDTAVYYCNADFRVYIPHVPYFVDFDYWGQGTQVTVSS | low polyreactivity
QVQLVESGGGLVQAGGSLRLSCAASGRIFYYNAMGWYRQAPGKEMELVAAITSGGSTNYADSVKGRFTISRDNAKNTVYLQMNSLKPEDTAVYYCAADYYYYVAGVHYDYWGQGTQVTVSS | low polyreactivity
IIQAGGSLRLSCAASGRTFSGYAMGWYRPAPGKERELIADITSGGSTYYADSVKGRFTISRDNAKNTVYLQMNSLKPEDTAVYYCNKVYPVVLYEPQYDYWGQGTQVTVSS | low polyreactivity
QVQLVESGGGLVQAGGSLRLSCSASGRTFIVYAMGWYRQAPGKERELVAAITTSVGRTYYADSVKGRFTISRDNAKNTVYLQMNSLKPEDTAVYYCAADRLDGYSEYYYWGQGTQVTVSS | low polyreactivity
QDQLVESGGGIVQAGGSLRLSCAASGRIFYGYAMGWYRQAPGKERELVAAITSRGTSTYYADSVKGRFTISRDNAKNTVYLQMNSLKPEDTAVFYCNAAYGRSFYSKVFSYNYWGQGTQVTVSS | high polyreactivity
QVQLVESGGGLVQAGGSLRLSCAASGSTFLVNAMGWYRQAPGKERELVAAITSGGDTNYADSVKGRFTISHDNAKNTVYLQMNSLKPEDTEVYYCATDYFNYRYFDFRWYYYWGQGTQVTVSS | high polyreactivity
QVKLVESGGGLVQAGGSLRLSCAASGSIVVRYTMGWYRQAPGKERELVAAIYWGGGSTYYADSVKGRFTISRDNAKNTVYLQMNSLKAEDTAVYYCKKRYILLYDYWGQGTQVTVSS | low polyreactivity
QVHLVESGRGLVQSGGSLRLSCADSGSTFATNAMGWYRQAPGKERELVAAITSRGGTYYADSVKRRFTISRDKAKNTVYLQMNSLKPEDTAVYYCNAVSRYAFDYCGQGTQVTVSS | high polyreactivity
QVQLVEAGGGLVQAGGRLRLSSAASGNIFIWYALGWYRQAPGKERELVAAIRWSGGGTYYADSVKGRFTISRDNAKNTVYFQMNSLKPEDTAVYYCAAESSASWYNFWGYEYWGQGTQVTVSS | high polyreactivity
QVQLVESGGFLVQAGGSLRLSCDASGSILADTSLGWYRQAPGKERELVAAISRRGGRTYYADSVKGRFTISRDNAKNTVYLQMNSLKPEDTGGYYCAAVGSFHIGDYWGLGTQVTVSS | high polyreactivity
QVQLVESGGGLVQAGGSLRLSCAASGSTLVDNGMGWYRHAPGKERELVASISSDGSTNYADSVKGRFTISRDNAKYTVYLQMNSLKTEDPAVYYCAADEGTGQASLSSNLSDYWGQGTQVTVSS | low polyreactivity
QVQLVESGGGLVQAGGSLRLSCAASGRIFYRNAMGWYRQAPGQERELDAGITRGGSTNYADSVKGRFTISRDNAKNTVYLQMNSLKPEDTAVYYCAKAIPAKFYSEAGYDYWGQGTQVTVSS | low polyreactivity
QVQLVESGGGLVQAGGSLRLSCAASGITFQYYAMGWYRQAPGKERELVAAITKRGGSTYYADSVKGRFTISRDNAKNTVYLQMTSLKPEETAVYYCAADLGGNSRLDYWGQGTQVTVSS | high polyreactivity
QVQLVESGGGLVQAGGSLRLTCASSGRIYVVNAMGWYRQAPGKEMELVADIYRSGGSTYYADSVKGRFTISRDYAKNTVYLQMNSLKPEDTAVYYCAAEDWPSSPSAPGFDYDYWGQATQVTVSS | low polyreactivity
QVQLVESGGGLVQAGGSLRLSCAAYGFTFKYYVMGWYRQAPGKERELVASISKRGGSTRYADSVKGRFTISRDNAKNTVYLQMNSLKPEDTAVYYCAAAFVRPPPYVGYSRFYYWGQGTQVTVSS | high polyreactivity
